In patent US20110200615A1 one finds Kd data, which are given here for 13 molecules.

Assay [1] concerns the target Botulinum neurotoxin type B, subtype B3 (BoNT/B3) (Clostridium botulinum). The assay can be described thus: KinExA flow fluorimetry; IgG in solution. For orientation: Kinetic exclusion samples the free partner from a solution-phase mixture.
Assay [2] addresses Botulinum neurotoxin type B, subtype B4 (BoNT/B4) (Clostridium botulinum). The assay can be described thus: KinExA flow fluorimetry; IgG in solution.
Assay [3] addresses Botulinum neurotoxin type B, subtype B3 (BoNT/B3) (Clostridium botulinum). The assay can be described thus: flow cytometry; yeast-displayed scFv, soluble toxin. A general note: In flow cytometry, cells or beads pass a laser one at a time.
Assay [4] concerns the target Botulinum neurotoxin type B, subtype B4 (BoNT/B4) (Clostridium botulinum). Described as above.

B1: 2B23 IgG (antibody, V domains shown)
VH: EVQLLESGGGLVQPGGSLRLSCAASGFTFSNYPMSWVRQAPGKGLAWVSSLTASGDNTFYADSVKGRFTISRDNSNNTLYLQMHSLRAEDTAVYYCAKALVGRYDISTGYYRPVMDSWGQGTLVTVSS
VL: DIQMTQSPPSLSASVGDRVTITCRTSQGFTSALAWYQQKPGEPPKLLIYDASKLESGVPSRFSGSGSGTNFALTISSLQPEDFATYFCQQSNSYPLTFGGGTKVEIKR
What is called Kd is the concentration at which binding is half-saturated. Read a high Kd as weaker binding. With B1, the Kd in assay [1] amounted to 0.048 nM; in assay [2], 0.0552 nM.

B2: 2B25 scFv (yeast displayed) (scFv)
scFv: QVQLQESGPGLVKPSQTLSLSCSVSGASITSGTFYWSWIRQHPGKDLEWIGYIYYSGTTYYNPSLKSRVTLSVDTSKNQFSLKVTSLTAADTAVYHCARGVPIYDSSGTYRGTYFDYWGQGTLVTVSSGGGGSGGGGSGGGGSQPGLTQPPSASGTPGQRVTISCSGSSSNVGSNTVNWYQQLPGTAPKLLIYRNDQRPSGVPDRFSGSKSGASASLAISGLRSEDEADYYCAAWDDSLNGLLFGGGTQLTVLG
B2: the Kd in assay [3] was 0.93 nM; in assay [4], 0.68 nM.

B3: 1B10.1 IgG (antibody, V domains shown)
VH: QVQLVESGGGVVQPGRSLRLSCAASGFTFSHYGMHWVRQSPGKGLEWVAVIWYDGRNPYYAASVKGRFTISRDNDKNTLYLQMNSLRAEDTAVYYCVKDLTRFHDTTFGVFEMWGPGTTVTVSS
VL: EIVLTQSPSFVSASVGDRVTITCRASQGISSWLAWYQQKPGKAPKLLIYAASSLQSGVPSRFSGSGSGTEFTLTISSLQPDDFATYYCQQYSSLYTFGQGTKVDIKR
For the molecule B3, the Kd worked out at 1.2 nM in assay [1] and 0.00047 nM in assay [2].

B4: 1B10 scFv (yeast displayed) (scFv)
scFv: QVQLVESGGGVVQPGRSLRLSCAASGFTFSHYGMHWVRQSPGKGLEWVAVIWYDGRNPYYAASVKGRFTISRDNDKNTLYLQMNSLRAEDTAVYYCVKDLTRFHDTTFGVFEMWGPGTTVTVSSGGGGSGGGGSGGGGSEIVLTQSPSSLSASVGDRITITCRASQSISSWLAWYQQKPGKAPMVLIYKASSLENGVPSRFSGSGSGTEFTLTISSLQPDDFATYYCQQYSTYSRTFGQGTKVEIKR
As for B4, the Kd in assay [3] is more than 5000 nM; in assay [4], 4.69 nM.

B5: 2B27 scFv (yeast displayed) (scFv)
scFv: EVQLQESGPGLVKPSETLSVTCAVSGGSISSSNYSWAWIRQPPGKGLEWIGTMYYSGSTHYHPSLKSRVTISVDTSKSQLSLKLSSVTAADTAVYYCARRRLLGPSPYYFDYWGQGTLVTVSSGGGGSGGGGSGGGGSQSVVTQPPSVSGAPGQRVTISCSGSSSNIGAGYDVHWYQQLPGTAPKLLIYGNNNRPSGVPDRFSGSKSGTSASLAITGLQAEDEADYYCQSYDSSLSAYVFGTGTKLTVLG
For the molecule B5, the figures for the Kd in assay [3] and in assay [4] were 2.32 nM and 0.77 nM, respectively.

B6: B12.1 IgG (antibody, V domains shown)
VH: QVNLRESGGGVVQPGRSLRLSCAASGFTFSSYALHWVRQTPGKGLEWVALISYDGSNKYYADSVKGRFTISRDNSKNMLYLQMNSLRAEDTAVYYCAKDRSHYGDYVGYLDYWGQGTLVTVSS
VL: AYVLTQPPSVSVAPGKTAAITCEGNNVGNKNVHWYQQRPGQAPVLVVHDDSDRPSGIPERFSGSNSGNTATLTINRVEAGDEADYYCQVWDSSSAQWVFGGGTKLTVLG
As for B6, the equilibrium dissociation constant (Kd) came to 0.0462 nM in assay [1] and 0.625 nM in assay [2].

B7: 1B11 scFv (yeast displayed) (scFv)
scFv: QVQLLQSAGGVVQPGRSLRLSCAASGFIFRTYGMHWVRQAPGKGLEWVAFVSSDGNNKFYSDSVKGRFTIPRDNAKNTLYLQMNSLETEDTAVYYCAKDRYPIDCSGGSCFSYGMDVWGQGTTVTVSSGGGGSGGGGSGGGGSDIVMTQSPSTLSASVGDRVTVTCRASQSINSWLAWYQQKPGKAPKLLIYEASSLESGVPSRFSGSGSGTEFTLTISSLQPDDFATYYCQQYDSYWLTFGGGTKVEIK
B7 came in with a Kd in assay [3] of 4.43 nM. This counts as single-digit nanomolar.

B8: 1B18 IgG (antibody, V domains shown)
VH: EVQLVQSGGGLVQPGGSRRLSCAASGFYFNAYWMTWVRQAPGKGLEWVANINLDGTEIYYLDSVKGRFTVSRDNVKNSVFLQMSSLRVEDTAVYFCARLEWGGRNGWVSPWGQGTLVTVSS
VL: DVVMTQSPSSVSASVGDRVTITCRASQSISSYLNWYQQRPGKAPKLLIFAASSLQSAVPSRFSGSGSGTDFTLTISSLQPEDFATYYCQQSYSTPPTFGQGTKVEIKR
Regarding B8, the Kd was 0.972 nM in assay [1] and 0.021 nM in assay [2].

B9: 2B24 scFv (yeast displayed) (scFv)
scFv: QVQLVESGGGVVQPGRSLRLSCAASGLTFSVYGMHWVRQAPGKGLEWVAVISHTGSEEYYADSVKGRFSISRDNSNNTLFLQMNSLRPEDTAVYYCVKDGPMAAIPFYYFDFWGQGTLVTVSSGGGGSGGGGSGGGGSQSVVTQPPSVSAAPGQKVTISCSGSSSNIGNNYVSWYQQLPGTAPKLLIYDNNKRPSGIPDRFSGSKSGTSATLGITGLQTGDEADYYCGTWDSSLSAGVFGGGTKLTVLG
On to B9, for which the Kd in assay [3] amounted to 4 nM; in assay [4], 0.72 nM.

B10: 2B23 scFv (yeast displayed) (scFv)
scFv: EVQLLESGGGLVQPGGSLRLSCAASGFTFSNYPMSWVRQAPGKGLAWVSSLTASGDNTFYADSVKGRFTISRDNSNNTLYLQMHSLRAEDTAVYYCAKALVGRYDISTGYYRPVMDSWGQGTLVTVSSGGGGSGGGGSGGGGSDIQMTQSPPSLSASVGDRVTITCRTSQGFTSALAWYQQKPGEPPKLLIYDASKLESGVPSRFSGSGSGTNFALTISSLQPEDFATYFCQQSNSYPLTFGGGTKVEIKR
With B10, the Kd in assay [3] came out at 0.25 nM; in assay [4], 0.19 nM.

B11: 2B25.1 IgG (antibody, V domains shown)
VH: QVQLQESGPGLVKPSQTLSLSCSVSGASITSGTFYWSWIRQHPGKDLEWIGYIYYSGTTYYNPSLKSRVTLSVDTSKNQFSLKVTSLTAADTAVYHCARGVPIYDSSGTYRGTYFDYWGQGTLVTVSS
VL: ESVLTQPPSVSAAPGQKVTISCSGSSSNIGNNYVSWYQQLPGTAPKLLIYDNNRRPSGIPDRFSGSKSGTSATLGITGLQTGDEADYYCGTWDSSLSEVVFGGGTKVTVLG
As for B11, the dissociation constant Kd stood at 0.0177 nM in assay [1] and 0.03 nM in assay [2].

B12: 1B18 scFv (yeast displayed) (scFv)
scFv: EVQLVQSGGGLVQPGGSRRLSCAASGFYFNAYWMTWVRQAPGKGLEWVANINLDGTEIYYLDSVKGRFTVSRDNVKNSVFLQMSSLRVEDTAVYFCARLEWGGRNGWVSPWGQGTLVTVSSGGGGSGGGGSGGGGSDVVMTQSPSSVSASVGDRVTITCRASQSISSYLNWYQQRPGKAPKLLIFAASSLQSAVPSRFSGSGSGTDFTLTISSLQPEDFATYYCQQSYSTPPTFGQGTKVEIKR
Take B12: the dissociation constant Kd was 3.04 nM in assay [3] and 1.7 nM in assay [4].

B13: B11E8 IgG (antibody, V domains shown)
VH: EVQLVQSGGGVVQPGRSLRLSCAASGFIFRTYGMHWVRQAPGKGLEWVAFVSSDGNNKFYSDSVKGRFTISRDNAKNTLYLQMNSLETEDTAMYYCAKDRYPIDCSGGSCFSYGMDVWGQGTTVTVSS
VL: EIVLTQSPATLSVSPGERATLSCRASQSVSKFLAWYQQKRGQAPRLLIYGASTRATGIPARFSGSGSGTEFALTISSLQSEDFADYYCQQYDNWPITFGQGTRLEIKR
In assay [1], B13 showed a Kd of 0.0156 nM. This counts as picomolar.
